Reference: PMC9992173, “Mapping of the extracellular RBP4 ligand binding domain on the RBPR2 receptor for Vitamin A transport” (Frontiers in Cell and Developmental Biology, 2023)

B1: msRbpr2 (42) peptide (peptide)
peptide: HVRDKLDMFEDKLESYLTHMNETGTLTPIILQVKELISVTKG
notes: mouse RBPR2 (STRA6like) peptide of 42 residues with the SYL residues S294, Y295, L296; also called WT-msRBPR2 peptide; mouse RBPR2 peptide; source: synthetic peptide (Biomatik Corporation)
B2: msStra6 (40) peptide (peptide)
peptide: SVVPTVQKVRAGINTDVSYLLAGFGIVLSEDRQEVVELVK
notes: mouse STRA6 peptide of 40 residues with Tyr336, Gly340 and Gly342; also called msSTRA6 peptide; mouse STRA6 peptide; source: synthetic peptide (Biomatik Corporation)
B3: zebRBPR2 (34) peptide (peptide)
peptide: DKLDSLKDSLEQIALSCNQTESVFTYLIPSINEF
notes: zebrafish RBPR2 peptide of 34 residues; also called zebrafish RBPR2 peptide; source: synthetic peptide (Biomatik Corporation)

molecular target: T1, Recombinant mouse RBP4 with 6XHis Tag (mouse, UniProt Q00724 19-201); assay: SPR; mouse RBP4 amine-coupled to a CM5 chip (target 1,200 RU), Biacore S200; peptides as analytes, 0.8-26.6 uM; running buffer PBST (0.05% Tween20); 25 C; contact 120 s, dissociation 300 s; Kd from the site-specific binding fit Y=(Bmax*X)/(Kd+X); details: both partners purified
T1 construct: Amine-coupled to a CM5 chip for SPR; also called msRBP4; source: E. coli expression system, purified (nickel NTA column)

| Binder | Kd [µM] |
| --- | --- |
| B1 | 25.4 |
| B2 | 26.7 |
| B3 | 33.2 |
